Experimental data as given in the supplement of paper PMC7877785.
± gives the uncertainty stated by the source.

Assay: self-splicing fitness, log relative to wild type (ln ratio); higher = more splicing; Tetrahymena group I intron in knt gene, E. coli kanamycin selection, DiMSum; sequences stand for … in CUCUCU…GGAGGGAAAAGUUAUCAGGCAUGCACCUGGUAGCUAGUCUUUAAACCAAUAGAUUGCAUCGGUUUAAAAGGCAAGACCGUCAAAUUGCGGGAAAGGGGUCAACAGCCGUUCAGUACCAAGUCUCAGGGGAAACUUUGAGAUGGCCUUGCAAAGGGUAUGGUAAUAAGCUGACGGACAUGGUCCUAACCACGCAGCCAAGUCCUAAGUCAACAGAUCUUCUGUUGAUAUGGAUGCAGUUCACAGACUAAAUGUCGGUCGGGGAAGAUGUAUUCUUCUCAUAAGAUAUAGUCGGACCUCUCCUUAAUGGGAGCUAGCGGAUGAAGUGAUGCAACACUGGAGCCGCUGGGAACUAAUUUGUAUGCGAAAGUAUAUUGAUUAGUUUUGGAGUACUCGUGGUCG
Summary of the method: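 Fitness was computed with DiMSum as the error-weighted combination of replicate fold changes, kanamycin versus none, each normalised to wild type. The library randomised all eight intron nucleotides of the P1ex region, with the intron placed in the knt kanamycin-resistance gene on pET-22b(+) in E. coli BL21(DE3). Six replicate transformations were grown overnight at 37°C or 30°C on LB agar with or without 25 μg/mL kanamycin, plus 100 μg/mL carbenicillin, 50 μM IPTG and 0.2% rhamnose. Pooled colonies were amplicon-sequenced on an Illumina HiSeq 2500.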

Row | Sequence | self-splicing fitness (ln) (30 °C) | self-splicing fitness (ln) (37 °C)
1 | AAUUAGCAAUAUUACGGCGU | -0.085 ± 0.076 | 0.168 ± 0.1
2 | AGCCAGCAAUAUUACGGGAU | -4 ± 0.17 | -2.05 ± 0.12
3 | CGAUAGCAAUAUUACGGCUC | -2.44 ± 0.14 | -1.15 ± 0.17
4 | CGUCAGCAAUAUUACGGAGG | -1.93 ± 0.1 | -1.57 ± 0.16
5 | AUGUAGCAAUAUUACGGCGU | -1.14 ± 0.11 | -0.716 ± 0.094
6 | GACGAGCAAUAUUACGCUCG | -1.59 ± 0.35 | -1.6 ± 0.33
7 | AGAGAGCAAUAUUACGGAUC | -3.76 ± 0.42 | 
8 | GUCGAGCAAUAUUACGUCGG |  | -2.34 ± 0.22
9 | GCCCAGCAAUAUUACGUAGG | -2.35 ± 0.24 | -2.15 ± 0.2
10 | GGCUAGCAAUAUUACGCCUU |  | -0.73 ± 0.19
11 | GGGUAGCAAUAUUACGACAU | -0.113 ± 0.015 | 0.159 ± 0.034
12 | GGAAAGCAAUAUUACGCCCA | 0.064 ± 0.16 | 0.325 ± 0.23
13 | GUCUAGCAAUAUUACGGGGA | -2.08 ± 0.25 | -3.16 ± 0.32
14 | CCCAAGCAAUAUUACGCAUC |  | -1.32 ± 0.21
15 | GGCUAGCAAUAUUACGUCAG | -2.81 ± 0.45 | 
16 | UGGAAGCAAUAUUACGUUGU | -3.64 ± 0.37 | -2.88 ± 0.3
17 | ACCUAGCAAUAUUACGGGAG | -1.93 ± 0.072 | -1.41 ± 0.088
18 | GGAAAGCAAUAUUACGGCAG | -1.79 ± 0.21 | -3.11 ± 0.43
19 | CAAGAGCAAUAUUACGCAUA | -2.71 ± 0.31 | -2.3 ± 0.37
20 | UUCGAGCAAUAUUACGCGGA | -2.94 ± 0.25 | -3.71 ± 0.39
21 | GGAGAGCAAUAUUACGGCGU | -1.58 ± 0.2 | -1.17 ± 0.26
22 | UCACAGCAAUAUUACGCUUG | -2.14 ± 0.12 | 0.263 ± 0.1
23 | UUGUAGCAAUAUUACGAUCA | -0.608 ± 0.19 | -0.00925 ± 0.14
24 | AGCUAGCAAUAUUACGACAG | -2.36 ± 0.21 | -1.64 ± 0.24
25 | UGGGAGCAAUAUUACGUUAG | -3.58 ± 0.32 | -2.13 ± 0.23

Row | Sequence | self-splicing fitness (ln) (30 °C) | self-splicing fitness (ln) (37 °C)
26 | CGCGAGCAAUAUUACGUACC |  | -2.69 ± 0.35
27 | CAGCAGCAAUAUUACGGGUA | -3.24 ± 0.19 | -1.73 ± 0.13
28 | UAAUAGCAAUAUUACGGCAG | -1.08 ± 0.1 | -0.425 ± 0.13
29 | GUGCAGCAAUAUUACGUUGA | -1.49 ± 0.13 | -0.806 ± 0.14
30 | AGCCAGCAAUAUUACGUUGC | -2.87 ± 0.18 | -3.28 ± 0.27
31 | GGGCAGCAAUAUUACGCGGA | -1.23 ± 0.15 | -0.758 ± 0.1
32 | UUACAGCAAUAUUACGGGCG | -0.655 ± 0.051 | 0.0547 ± 0.066
33 | AAGAAGCAAUAUUACGCCAG | -2.87 ± 0.26 | -2.3 ± 0.27
34 | GAUUAGCAAUAUUACGGUCU | -3.15 ± 0.32 | -2.07 ± 0.18
35 | CCCGAGCAAUAUUACGUAAU | -4.75 ± 0.45 | -2.63 ± 0.32
36 | GCCAAGCAAUAUUACGGCUG | -3.81 ± 0.13 | -3.25 ± 0.19
37 | GAUCAGCAAUAUUACGCGCU | -1.86 ± 0.12 | -0.35 ± 0.12
38 | AUCCAGCAAUAUUACGCGGA | -3.7 ± 0.25 | -2.5 ± 0.17
39 | GGUAAGCAAUAUUACGGCAC | -0.762 ± 0.096 | -0.531 ± 0.15
40 | CAAGAGCAAUAUUACGUCAG | -3.25 ± 0.16 | -0.429 ± 0.11
41 | AAUUAGCAAUAUUACGGCCG | -0.532 ± 0.18 | 0.571 ± 0.28
42 | AACAAGCAAUAUUACGUCUG | -1.22 ± 0.058 | -0.709 ± 0.076
43 | ACAGAGCAAUAUUACGUCGC | -2.98 ± 0.31 | -3.02 ± 0.31
44 | UUCGAGCAAUAUUACGCGAG | -2.72 ± 0.37 | -1.94 ± 0.44
45 | UUCAAGCAAUAUUACGACUU | -3.86 ± 0.15 | -2.65 ± 0.18
46 | ACGAAGCAAUAUUACGUCAU | -2.99 ± 0.12 | -2.81 ± 0.14
47 | UCCAAGCAAUAUUACGCGUU | -4.5 ± 0.19 | -2.33 ± 0.15
48 | UACGAGCAAUAUUACGGCUC |  | 0.0878 ± 0.5
49 | UAUCAGCAAUAUUACGAGGG | -2.76 ± 0.18 | -1.61 ± 0.19
50 | GACGAGCAAUAUUACGAAGU | -3.26 ± 0.22 | -2.57 ± 0.26

Row | Sequence | self-splicing fitness (ln) (30 °C) | self-splicing fitness (ln) (37 °C)
51 | GGGAAGCAAUAUUACGCCCG |  | 0.0331 ± 0.36
52 | CCGAAGCAAUAUUACGACCU | -3.73 ± 0.32 | -2.3 ± 0.36
53 | AAAUAGCAAUAUUACGCACU | 0.478 ± 0.12 | -0.381 ± 0.13
54 | AACCAGCAAUAUUACGUAGA | -1.75 ± 0.044 | -0.514 ± 0.058
55 | UCGCAGCAAUAUUACGCCAA | -1.37 ± 0.16 | -1.23 ± 0.22
56 | CCCAAGCAAUAUUACGGUGC | -3.6 ± 0.27 | -2.26 ± 0.22
57 | GUGCAGCAAUAUUACGGGGU | -2.79 ± 0.22 | -2.19 ± 0.24
58 | AAGCAGCAAUAUUACGCGAG | -0.949 ± 0.095 | -0.986 ± 0.11
59 | UCUGAGCAAUAUUACGUUGA | -1.89 ± 0.1 | -0.656 ± 0.085
60 | AACAAGCAAUAUUACGCGGA | -2.07 ± 0.099 | -0.961 ± 0.078
61 | UCCCAGCAAUAUUACGAAUA | -2.11 ± 0.1 | -1.42 ± 0.11
62 | CCAAAGCAAUAUUACGGGCG | -1.31 ± 0.065 | -0.301 ± 0.094
63 | GCGCAGCAAUAUUACGCUUC | -1.97 ± 0.24 | -0.419 ± 0.15
64 | AAAUAGCAAUAUUACGAAGC | -3.18 ± 0.47 | 
65 | UUCCAGCAAUAUUACGUUCA | -0.829 ± 0.13 | 0.389 ± 0.12
66 | CGAUAGCAAUAUUACGGAGU | -2.09 ± 0.16 | -3.36 ± 0.32
67 | CAACAGCAAUAUUACGGCCA | -2.55 ± 0.15 | -1.59 ± 0.14
68 | CACUAGCAAUAUUACGACUU | -2.29 ± 0.15 | -0.517 ± 0.12
69 | GUCGAGCAAUAUUACGGUCC | -3.17 ± 0.22 | -0.877 ± 0.17
70 | CAGUAGCAAUAUUACGACAC | -2.36 ± 0.22 | -1.28 ± 0.23
71 | UCAAAGCAAUAUUACGUGGU | -4.25 ± 0.26 | -2.19 ± 0.18
72 | GGCAAGCAAUAUUACGACGA | -1.37 ± 0.099 | -0.167 ± 0.11
73 | UGUGAGCAAUAUUACGCUCU | -1.26 ± 0.3 | 
74 | UAUCAGCAAUAUUACGGAAU | -2.23 ± 0.1 | -1.27 ± 0.12
75 | GUUUAGCAAUAUUACGUGAA | -1.35 ± 0.12 | -2.04 ± 0.18

Row | Sequence | self-splicing fitness (ln) (30 °C) | self-splicing fitness (ln) (37 °C)
76 | GUAAAGCAAUAUUACGGACA | -0.403 ± 0.085 | 0.623 ± 0.12
77 | CAACAGCAAUAUUACGAUGG | -0.426 ± 0.056 | 0.257 ± 0.075
78 | CGCUAGCAAUAUUACGCCAU | -3.62 ± 0.3 | -1.27 ± 0.27
79 | CUGCAGCAAUAUUACGGUAU | -4.53 ± 0.25 | -2.85 ± 0.19
80 | UGACAGCAAUAUUACGACCU | -1.09 ± 0.11 | 0.0765 ± 0.14
81 | CAUGAGCAAUAUUACGAACA |  | -2 ± 0.32
82 | CCCCAGCAAUAUUACGUCCU | -2.36 ± 0.17 | -2.14 ± 0.22
83 | GUCAAGCAAUAUUACGUUUU | -2.8 ± 0.11 | -0.976 ± 0.1
84 | UUGAAGCAAUAUUACGUUGA | -0.405 ± 0.093 | -0.404 ± 0.11
85 | GCUCAGCAAUAUUACGCGUC | -0.866 ± 0.1 | -0.379 ± 0.12
86 | AUCAAGCAAUAUUACGGGGC | -3.13 ± 0.24 | -3.01 ± 0.26
87 | GUGUAGCAAUAUUACGCAUU | -2.29 ± 0.3 | -1.97 ± 0.28
88 | CGAUAGCAAUAUUACGUACA | -1.98 ± 0.13 | -0.0364 ± 0.14
89 | GAGGAGCAAUAUUACGUAUG | -3.97 ± 0.47 | -2.83 ± 0.4
90 | UCAUAGCAAUAUUACGGAGA | -1.95 ± 0.17 | -0.994 ± 0.13
91 | CCUCAGCAAUAUUACGUUCG | -2.69 ± 0.077 | -0.795 ± 0.075
92 | UAAUAGCAAUAUUACGGGUA | -1.9 ± 0.17 | -0.433 ± 0.14
93 | GGACAGCAAUAUUACGAGGA | -2.32 ± 0.2 | -1.85 ± 0.16
94 | UCGCAGCAAUAUUACGGUAU | -3.36 ± 0.17 | -1.78 ± 0.21
95 | UGUCAGCAAUAUUACGCUAA | -0.476 ± 0.071 | 0.355 ± 0.094
96 | AGCCAGCAAUAUUACGUCCG | -3.12 ± 0.24 | -1.71 ± 0.29
97 | GGACAGCAAUAUUACGAACG | -0.686 ± 0.08 | -0.333 ± 0.1
98 | AAUGAGCAAUAUUACGACUU | -0.422 ± 0.091 | 0.263 ± 0.1
